Source: patent US20230212549A1 (3B PHARMACEUTICALS, published 2023)
Where “and” joins values, the source holds several entries; their conditions need not be identical. Equal entries are not always repeated. Numbered stars: 1 amine (or outer) side, 2 acyl side, 3 side chain; on linkers, the order of the positions; unused ones are H or OH. Bridge positions count the residues as written; N and C are the ends. Square brackets hold non-standard residues; d marks the D form. Primed or numbered codes have the meaning given here. * marks the point of attachment. tMeBn(DOTA-PP) = 1,3,5-trimethylbenzylidene, two thioethers to Cys, third CH2 bound to one N of piperazine whose other N bears DOTA, O=C(O)CN1CCN(CC(=O)O)CCN(CC(=O)N2CCN(Cc3cc(C[*:1])cc(C[*:2])c3)CC2)CCN(CC(=O)O)CC1; Ttds″ = 1,13-diamino-4,7,10-trioxatridecan-succinamic acid spacer, O=C(CCC(=O)[*:2])NCCCOCCOCCOCCCN[*:1]; Ttds(6) = 1,13-Diamino-4,7,10-trioxatridecan-succinamic acid, O=C(CCC(=O)[*:2])NCCCOCCOCCOCCCN[*:1]; Ttds = 1,13-diamino-4,7,10-trioxatridecan-succinamic acid, O=C(CCC(=O)[*:2])NCCCOCCOCCOCCCN[*:1]; 3MeBn = 3-Methylbenzylidene (m-xylylene thioether bridge from α,α′-dibromo-m-xylene); N4Ac = 6-Carboxy-1,4,8,11-tetraazaundecane, an N4-chelator, NCCNCC(CNCCN)C(=O)*; APAc = 2-(4-(Amino)piperidin-1-yl)acetic acid, O=C(CN1CCC(N[*:1])CC1)[*:2]; 3MeBn(3) = 3-methylbenzylidene (m-xylylene), from α,α′-dibromo-m-xylene; DOTA = O=C(O)CN1CCN(CC(=O)O)CCN(CC(=O)*)CCN(CC(=O)O)CC1; γGlu = O=C(O)[C@H](CCC(=O)[*:2])N[*:1]; 1Nal = N[C@@H](Cc1cccc2ccccc12)C(=O)O; mXylylene = c1cc(C[*:1])cc(C[*:2])c1; Hyp = O=C(O)[C@@H]1C[C@@H](O)CN1; PentylNH‑urea = CCCCCNC(=O)*; Nle = CCCC[C@H](N)C(=O)O; Octanoyl = CCCCCCCC(=O)*; Hexanoyl = CCCCCC(=O)*

Tests used:
[1] = target: Recombinant human FAP (R&D systems, #3715-SE) (human, UniProt Q12884 26-760); test: cell-based or functional assay
[2] = target: T1, fibroblast activation protein (FAP) on FAP-expressing human WI-38 fibroblasts (human, UniProt Q12884 1-760); test: competitive FACS, WI-38 cells, vs Cy5 tracer m3; B = pIC50 7.1-8.0
T1 construct: also called human FAP

[3] = target: Recombinant human FAP (R&D systems, #3715-SE) (human, UniProt Q12884 26-760); test: cell-based or functional assay; remark: listed apart in the source

pIC50 Category (Activity) [1]	pIC50 Category (FACS) [2]	pIC50 Category (Activity) [3] [pIC50]	Binder
7.1 pIC50 and 8 pIC50	7.1 pIC50 and 8 pIC50	–	MCPPTQFC (N-term acetyl; D-Met1; Cys2/Cys8 thioether-bridged by tMeBn carrying DOTA-AET; C-term free acid, also called 3BP-3682) [Ac-met-[Cys(tMeBn(DOTA-AET))-Pro-Pro-Thr-Gln-Phe-Cys]-OH]
7.1 pIC50 and 8 pIC50	7.1 pIC50 and 8 pIC50	–	Hexanoyl-CPPTQWC-NH2 (linker 1-7 via mXylylene; SMILES CCCCCC(=O)N[C@H]1CSCc2cccc(c2)CSC[C@@H](C(N)=O)NC(=O)[C@H](Cc2c[nH]c3ccccc23)NC(=O)[C@H](CCC(N)=O)NC(=O)[C@H]([C@@H](C)O)NC(=O)[C@@H]2CCCN2C(=O)[C@@H]2CCCN2C1=O, also called 3BP-3408) [Hex-[Cys(3MeBn)-Pro-Pro-Thr-Gln-Trp-Cys]-NH2]
7.1 pIC50 and 8 pIC50	7.1 pIC50 and 8 pIC50	–	Hexanoyl-CPPTEFC-OH (linker 1-7 via mXylylene; SMILES CCCCCC(=O)N[C@H]1CSCc2cccc(c2)CSC[C@@H](C(=O)O)NC(=O)[C@H](Cc2ccccc2)NC(=O)[C@H](CCC(=O)O)NC(=O)[C@H]([C@@H](C)O)NC(=O)[C@@H]2CCCN2C(=O)[C@@H]2CCCN2C1=O, also called 3BP-3370) [Hex-[Cys(3MeBn)-Pro-Pro-Thr-Glu-Phe-Cys]-OH]
7.1 pIC50 and 8 pIC50	7.1 pIC50 and 8 pIC50	–	Ac-MCPPTEFCAHFRD-NH2 (linker 2-8 via mXylylene; SMILES CSCC[C@H](NC(C)=O)C(=O)N[C@H]1CSCc2cccc(c2)CSC[C@@H](C(=O)N[C@@H](C)C(=O)N[C@@H](Cc2c[nH]cn2)C(=O)N[C@@H](Cc2ccccc2)C(=O)N[C@@H](CCCNC(=N)N)C(=O)N[C@@H](CC(=O)O)C(N)=O)NC(=O)[C@H](Cc2ccccc2)NC(=O)[C@H](CCC(=O)O)NC(=O)[C@H]([C@@H](C)O)NC(=O)[C@@H]2CCCN2C(=O)[C@@H]2CCCN2C1=O, also called 3BP-3194) [Ac-Met-[Cys(3MeBn)-Pro-Pro-Thr-Glu-Phe-Cys]-Ala-His-Phe-Arg-Asp-NH2]
> 8 pIC50	7.1 pIC50 and 8 pIC50	–	{PentylNH‑urea}-CPPTQFCD-NH2 (linker 1-7 via mXylylene; SMILES CCCCCNC(=O)N[C@H]1CSCc2cccc(c2)CSC[C@@H](C(=O)N[C@@H](CC(=O)O)C(N)=O)NC(=O)[C@H](Cc2ccccc2)NC(=O)[C@H](CCC(N)=O)NC(=O)[C@H]([C@@H](C)O)NC(=O)[C@@H]2CCCN2C(=O)[C@@H]2CCCN2C1=O, also called 3BP-3425) [PentylNH-urea-[Cys(3MeBn)-Pro-Pro-Thr-Gln-Phe-Cys]-Asp-NH2]
7.1 pIC50 and 8 pIC50	7.1 pIC50 and 8 pIC50	–	Ac-MCP[dP]TEFCDHFRD-NH2 (linker 2-8 via mXylylene; SMILES CSCC[C@H](NC(C)=O)C(=O)N[C@H]1CSCc2cccc(c2)CSC[C@@H](C(=O)N[C@@H](CC(=O)O)C(=O)N[C@@H](Cc2c[nH]cn2)C(=O)N[C@@H](Cc2ccccc2)C(=O)N[C@@H](CCCNC(=N)N)C(=O)N[C@@H](CC(=O)O)C(N)=O)NC(=O)[C@H](Cc2ccccc2)NC(=O)[C@H](CCC(=O)O)NC(=O)[C@H]([C@@H](C)O)NC(=O)[C@H]2CCCN2C(=O)[C@@H]2CCCN2C1=O, also called 3BP-3177) [Ac-Met-[Cys(3MeBn)-Pro-pro-Thr-Glu-Phe-Cys]-Asp-His-Phe-Arg-Asp-NH2]
7.1 pIC50 and 8 pIC50	7.1 pIC50 and 8 pIC50	–	{DOTA}-[Ttds″]ECPPTEFCDHFRD-NH2 (linker 3-9 via mXylylene; SMILES C[C@@H](O)[C@@H]1NC(=O)[C@@H]2CCCN2C(=O)[C@@H]2CCCN2C(=O)[C@@H](NC(=O)[C@H](CCC(=O)O)NC(=O)CCC(=O)NCCCOCCOCCOCCCNC(=O)CN2CCN(CC(=O)O)CCN(CC(=O)O)CCN(CC(=O)O)CC2)CSCc2cccc(c2)CSC[C@@H](C(=O)N[C@@H](CC(=O)O)C(=O)N[C@@H](Cc2c[nH]cn2)C(=O)N[C@@H](Cc2ccccc2)C(=O)N[C@@H](CCCNC(=N)N)C(=O)N[C@@H](CC(=O)O)C(N)=O)NC(=O)[C@H](Cc2ccccc2)NC(=O)[C@H](CCC(=O)O)NC1=O, also called 3BP-3173) [DOTA-Ttds-Glu-[Cys(3MeBn)-Pro-Pro-Thr-Glu-Phe-Cys]-Asp-His-Phe-Arg-Asp-NH2]
7.1 pIC50 and 8 pIC50	7.1 pIC50 and 8 pIC50	–	{DOTA}-[Ttds]FCPPTEFCDHFRD-NH2 (linker 3-9 via mXylylene; SMILES C[C@@H](O)[C@@H]1NC(=O)[C@@H]2CCCN2C(=O)[C@@H]2CCCN2C(=O)[C@@H](NC(=O)[C@H](Cc2ccccc2)NC(=O)CCC(=O)NCCCOCCOCCOCCCNC(=O)CN2CCN(CC(=O)O)CCN(CC(=O)O)CCN(CC(=O)O)CC2)CSCc2cccc(c2)CSC[C@@H](C(=O)N[C@@H](CC(=O)O)C(=O)N[C@@H](Cc2c[nH]cn2)C(=O)N[C@@H](Cc2ccccc2)C(=O)N[C@@H](CCCNC(=N)N)C(=O)N[C@@H](CC(=O)O)C(N)=O)NC(=O)[C@H](Cc2ccccc2)NC(=O)[C@H](CCC(=O)O)NC1=O, also called 3BP-3171) [DOTA-Ttds-Phe-[Cys(3MeBn)-Pro-Pro-Thr-Glu-Phe-Cys]-Asp-His-Phe-Arg-Asp-NH2]
–	–	≤ 6	N4Ac-[APAc][Nle]CPPTEFC-OH (linker 3-9 via 3MeBn(3)) [N4Ac-APAc-Nle-[Cys-(3MeBn)-Pro-Pro-Thr-Glu-Phe-Cys]-OH]
7.1 pIC50 and 8 pIC50	7.1 pIC50 and 8 pIC50	–	Octanoyl-CPPTQFCD-NH2 (linker 1-7 via mXylylene; SMILES CCCCCCCC(=O)N[C@H]1CSCc2cccc(c2)CSC[C@@H](C(=O)N[C@@H](CC(=O)O)C(N)=O)NC(=O)[C@H](Cc2ccccc2)NC(=O)[C@H](CCC(N)=O)NC(=O)[C@H]([C@@H](C)O)NC(=O)[C@@H]2CCCN2C(=O)[C@@H]2CCCN2C1=O, also called 3BP-3417) [Oct-[Cys(3MeBn)-Pro-Pro-Thr-Gln-Phe-Cys]-Asp-NH2]
7.1 pIC50 and 8 pIC50	7.1 pIC50 and 8 pIC50	–	{DOTA}-[Ttds][Nle]CPPTEFC-NH2 (linker 3-9 via mXylylene; SMILES CCCC[C@H](NC(=O)CCC(=O)NCCCOCCOCCOCCCNC(=O)CN1CCN(CC(=O)O)CCN(CC(=O)O)CCN(CC(=O)O)CC1)C(=O)N[C@H]1CSCc2cccc(c2)CSC[C@@H](C(N)=O)NC(=O)[C@H](Cc2ccccc2)NC(=O)[C@H](CCC(=O)O)NC(=O)[C@H]([C@@H](C)O)NC(=O)[C@@H]2CCCN2C(=O)[C@@H]2CCCN2C1=O, also called 3BP-3319) [DOTA-Ttds-Nle-[Cys(3MeBn)-Pro-Pro-Thr-Glu-Phe-Cys]-NH2]
–	–	≤ 6	N4Ac-[γGlu][Nle]CPPTEFC-OH (linker 3-9 via mXylylene; SMILES CCCC[C@H](NC(=O)CC[C@H](NC(=O)C(CNCCN)CNCCN)C(=O)O)C(=O)N[C@H]1CSCc2cccc(c2)CSC[C@@H](C(=O)O)NC(=O)[C@H](Cc2ccccc2)NC(=O)[C@H](CCC(=O)O)NC(=O)[C@H]([C@@H](C)O)NC(=O)[C@@H]2CCCN2C(=O)[C@@H]2CCCN2C1=O) [N4Ac-gGlu-Nle-[Cys-(3MeBn)-Pro-Pro-Thr-Glu-Phe-Cys]-OH]
> 8 pIC50	7.1 pIC50 and 8 pIC50	–	{DOTA}-[Ttds][Nle]CPPTEFCD-NH2 (linker 3-9 via mXylylene; SMILES CCCC[C@H](NC(=O)CCC(=O)NCCCOCCOCCOCCCNC(=O)CN1CCN(CC(=O)O)CCN(CC(=O)O)CCN(CC(=O)O)CC1)C(=O)N[C@H]1CSCc2cccc(c2)CSC[C@@H](C(=O)N[C@@H](CC(=O)O)C(N)=O)NC(=O)[C@H](Cc2ccccc2)NC(=O)[C@H](CCC(=O)O)NC(=O)[C@H]([C@@H](C)O)NC(=O)[C@@H]2CCCN2C(=O)[C@@H]2CCCN2C1=O, also called 3BP-3320) [DOTA-Ttds-Nle-[Cys(3MeBn)-Pro-Pro-Thr-Glu-Phe-Cys]-Asp-NH2]
–	–	≤ 6	Hexanoyl-CFQTPPCD-NH2 (linker 1-7 via tMeBn(DOTA-PP); SMILES CCCCCC(=O)N[C@H]1CSCc2cc(cc(CN3CCN(C(=O)CN4CCN(CC(=O)O)CCN(CC(=O)O)CCN(CC(=O)O)CC4)CC3)c2)CSC[C@@H](C(=O)N[C@@H](CC(=O)O)C(N)=O)NC(=O)[C@@H]2CCCN2C(=O)[C@@H]2CCCN2C(=O)[C@H]([C@@H](C)O)NC(=O)[C@H](CCC(N)=O)NC(=O)[C@H](Cc2ccccc2)NC1=O) [Hex-[Cys(tMeBn(DOTA-PP))-Phe-Gln-Thr-Pro-Pro-Cys]-Asp-NH2]
7.1 pIC50 and 8 pIC50	7.1 pIC50 and 8 pIC50	–	Hexanoyl-CPPTE[1Nal]C-NH2 (linker 1-7 via mXylylene; SMILES CCCCCC(=O)N[C@H]1CSCc2cccc(c2)CSC[C@@H](C(N)=O)NC(=O)[C@H](Cc2cccc3ccccc23)NC(=O)[C@H](CCC(=O)O)NC(=O)[C@H]([C@@H](C)O)NC(=O)[C@@H]2CCCN2C(=O)[C@@H]2CCCN2C1=O, also called 3BP-3361) [Hex-[Cys(3MeBn)-Pro-Pro-Thr-Glu-1Ni-Cys]-NH2]
7.1 pIC50 and 8 pIC50	7.1 pIC50 and 8 pIC50	–	Hexanoyl-CPPTQFCD-NH2 (linker 1-7 via tMeBn(DOTA-NH), also called 3BP-3556) [Hex-[Cys(tMeBn(DOTA-NH))-Pro-Pro-Thr-Gln-Phe-Cys]-Asp-NH2]
7.1 pIC50 and 8 pIC50	7.1 pIC50 and 8 pIC50	–	Hexanoyl-CP[Hyp]TEFC-NH2 (linker 1-7 via mXylylene; SMILES CCCCCC(=O)N[C@H]1CSCc2cccc(c2)CSC[C@@H](C(N)=O)NC(=O)[C@H](Cc2ccccc2)NC(=O)[C@H](CCC(=O)O)NC(=O)[C@H]([C@@H](C)O)NC(=O)[C@@H]2C[C@@H](O)CN2C(=O)[C@@H]2CCCN2C1=O, also called 3BP-3366) [Hex-[Cys(3MeBn)-Pro-Hyp-Thr-Glu-Phe-Cys]-NH2]
–	–	≤ 6	N4Ac-[Ttds(6)]E[Nle]CPPTEFC-OH (linker 4-10 via 3MeBn; not fully specified (residue 2); printed as N4Ac-Ttds-Glu(AGLU′)-Nle-[Cys-(3MeBn)-Pro-Pro-Thr-Glu-Phe-Cys]-OH) [N4Ac-Ttds-Glu(AGLU′)-Nle-[Cys-(3MeBn)-Pro-Pro-Thr-Glu-Phe-Cys]-OH]
–	–	≤ 6	Hexanoyl-CTQPFPCD-NH2 (linker 1-7 via tMeBn(DOTA-PP); SMILES CCCCCC(=O)N[C@H]1CSCc2cc(cc(CN3CCN(C(=O)CN4CCN(CC(=O)O)CCN(CC(=O)O)CCN(CC(=O)O)CC4)CC3)c2)CSC[C@@H](C(=O)N[C@@H](CC(=O)O)C(N)=O)NC(=O)[C@@H]2CCCN2C(=O)[C@H](Cc2ccccc2)NC(=O)[C@@H]2CCCN2C(=O)[C@H](CCC(N)=O)NC(=O)[C@H]([C@@H](C)O)NC1=O) [Hex-[Cys(tMeBn(DOTA-PP))-Thr-Gln-Pro-Phe-Pro-Cys]-Asp-NH2]
